Laboratory results: the supplement of paper PMC9170038

Tested on: MS2 coat protein
Assay: apparent KD of MS2 coat protein; designed switch direction (-1 OFF switch, 1 ON switch): 1; higher = weaker reporter binding
Outline: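 Designed RNA switches sharing common flanks were transcribed on Illumina chips by stalled E. coli RNA polymerase. They were titrated with SNAP-549-labelled MS2 coat protein, from 0.7 or 1.5 nM doubling to 3 µM, in Tris-HCl pH 7.5 buffer with KCl, MgCl2, BSA, DTT, tRNA and Tween-20. Titrations ran without input, with 200 uM small-molecule ligand, or with an oligonucleotide input. The apparent KD of each design is the median over its clusters, after curve-fitting of normalised cluster fluorescence.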

[1] = input ligand: microRNA oligo, concentration not stated
[2] = Eterna round: R95, input ligand: FMN 200 uM
[3] = Eterna round: R95, input ligand: microRNA oligo, concentration not stated
[4] = Eterna round: R95, input ligand: none

GCCGGCUGGUGAGGAUAUGGCGCCUUGUUGGUGCCAGAAGGCAUGUCAAUUGACAUGAGGAUCACCCAUGUGUUGUCGUUGGCG [salish99_SSNG1_r04_611] (Eterna round: R96, puzzle: Same State NG 1)
apparent KD of MS2 coat protein (input ligand: FMN 200 uM): 808 nM | apparent KD of MS2 coat protein [1]: 110 nM | apparent KD of MS2 coat protein (input ligand: none): 459 nM

GUAGCAUACCGAGGAUAUUCAUAUAAUAAAUAACAUGAGGAUCACCCAUGUAGGCGAAAGCCUUGGGAGAAGGCGGAAUGCUAC [Xeonanis - 20 Mod57] (Eterna round: R96, puzzle: Same State NG 2)
apparent KD of MS2 coat protein (input ligand: FMN 200 uM): 13.5 nM | apparent KD of MS2 coat protein [1]: 108 nM | apparent KD of MS2 coat protein (input ligand: none): 112 nM

UGGUACAUGGGAGGAUAUCAUGUAGAAACAUGAGGAUCACCCAUGUAGAUGGCACGAUUCGUGAAUGAGAAGGCCCAUGUACCU [JL SSNG1 3.60] (Eterna round: R96, puzzle: Same State NG 2)
apparent KD of MS2 coat protein (input ligand: FMN 200 uM): 36.8 nM | apparent KD of MS2 coat protein [1]: 38.2 nM | apparent KD of MS2 coat protein (input ligand: none): 52.8 nM

AUUUUCAAUGCAGGAUAUGAUUAACAUGAGGAUCACCCAUGUGGUGUUGUGAGUAAGGAGAGUGAUCAGAAGGGCAUUUUUUUU [JMF's solution 97] (Eterna round: R96, puzzle: Same State NG 2)
apparent KD of MS2 coat protein (input ligand: FMN 200 uM): 428 nM | apparent KD of MS2 coat protein [1]: 371 nM | apparent KD of MS2 coat protein (input ligand: none): 486 nM

UACAAUCUAUCUGAGGAUAUCAUGAAAUAAACAUGAGGAUCACCCAUGUGCAGGAAAACUGCAUAUGAGAAGGCAGAUAGAUUGU [salish99_ss2_r3_059] (puzzle: Same State 2)
apparent KD of MS2 coat protein [2]: 41.1 nM | apparent KD of MS2 coat protein [3]: 662 nM | apparent KD of MS2 coat protein [4]: 1640 nM

AGAAGGAGAGCGCAGGAUAUCGAUAAUGACACAUGAGGAUCACCCAUGUUUGGUAUUAGAAGGAACGAGAAGGGUGAAAGGAGAA [knee_arm_01] (puzzle: Same State 2)
apparent KD of MS2 coat protein [2]: 59.2 nM | apparent KD of MS2 coat protein [3]: 59.8 nM | apparent KD of MS2 coat protein [4]: 116 nM

AGUCCAGCCUGAGCUGGACAAAAGCAUGUACAUGAGGAUCACCCAUGUUCAUGUACAAGCUUUUUGCUCGUUUUAAA [Zipper 52 - 8] (puzzle: Sensor for hsa-mir-208a)
apparent KD of MS2 coat protein [2]: 523 nM | apparent KD of MS2 coat protein [3]: 13.5 nM | apparent KD of MS2 coat protein [4]: 546 nM

GUGGUGAAUUAAGGAUAUCGAGUCUAGAUGUUAAACAUGAGGAUCACCCAUGUGGGUUGCGGUGUCGAGAAGGUAAUUUACGGG [salish99_SSNG2_r04_508] (Eterna round: R96, puzzle: Same State NG 2)
apparent KD of MS2 coat protein [1]: 52.6 nM

CAGCUCGUGUGAGGAUAUGCCGCCGUUUCGGCUGCAGAAGGUGCUACGUUACAUGAGGAUCACCCAUGUCUCUGUUGUUUCGUU [salish99_SSNG1_r04_950] (Eterna round: R96, puzzle: Same State NG 1)
apparent KD of MS2 coat protein [1]: 18.2 nM

CGUCCGGCCUGUGCUGGCCGGAAGCUUGUACAUGAGGAUCACCCAUGUUCAUGUGCAGGCUUUUUGCUCGUCUUGUG [salish99_mir208a_009] (puzzle: Sensor for hsa-mir-208a)
apparent KD of MS2 coat protein [2]: 26.4 nM | apparent KD of MS2 coat protein [3]: 30.9 nM | apparent KD of MS2 coat protein [4]: 32.2 nM

GCUCGAAUCAGAACCAACAUGAGGAUCACCCAUGUGUGUUGGUAGGAUAUCGUUUCUAAGAGAAACGAGAAGGGCCGAACGAGC [SameState NG3 #6] (Eterna round: R96, puzzle: Same State NG 3)
apparent KD of MS2 coat protein (input ligand: FMN 200 uM): 41 nM | apparent KD of MS2 coat protein [1]: 52.3 nM | apparent KD of MS2 coat protein (input ligand: none): 75.7 nM

AUGGUGCAGGUACAGGAUAUGUUGCUCGUAACAUGAGGAUCACCCAUGUACCUAUGAGAUUAAAUGCAGAAGGGUGCACACCACG [Quorra] (Eterna round: R96, puzzle: Same State 2)
apparent KD of MS2 coat protein (input ligand: FMN 200 uM): 62.8 nM | apparent KD of MS2 coat protein [1]: 406 nM | apparent KD of MS2 coat protein (input ligand: none): 1260 nM

GGAGGACAUGAGGAUCACCCAUGUGGAUGGGCGCUAGGAUAUGCGAGAGGAGGGAGUGGAGCAGAAGGAGUGGGUU [JR_SS1_Sub043] (puzzle: Same State 1)
apparent KD of MS2 coat protein [3]: 50.3 nM

AAUUAAGAUCUAGGAUAUCACGUCGUUUAGACGUGAGAAGGAGAUCAUAACAUGAGGAUCACCCAUGUAUUACAUGAAUUAAUU [SSNG1/6-B3] (Eterna round: R96, puzzle: Same State NG 1)
apparent KD of MS2 coat protein (input ligand: FMN 200 uM): 24.2 nM | apparent KD of MS2 coat protein [1]: 22.9 nM | apparent KD of MS2 coat protein (input ligand: none): 28.5 nM

UUUGGGUGGCUGGAGGAUAUUCUUGUGGUUACAUGAGGAUCACCCAUGUGUCGCGCGGUGCGCGAGGAGAAGGCUGGCGGCCGUU (puzzle: Same State 2)
apparent KD of MS2 coat protein [3]: 186 nM

GUGCUCGUGUAAGGAUAUGCUUCCGUUUCGGCUGCAGAAGGUACUAUAAUACAUGAGGAUCACCCAUGUCUCUUUUGUUUGGUG [salish99_SSNG1_r04_908] (Eterna round: R96, puzzle: Same State NG 1)
apparent KD of MS2 coat protein (input ligand: FMN 200 uM): 86.1 nM | apparent KD of MS2 coat protein [1]: 58.6 nM | apparent KD of MS2 coat protein (input ligand: none): 76.5 nM

UAUUUAAUCAUAGGAUAUAGAGUGAAAUUUGGACUAGAAGGAUGUAACAUGAGGAUCACCCAUGUGGUAAGUGGGACACAGUGU [JR_SSNG1_Sub094] (Eterna round: R96, puzzle: Same State NG 1)
apparent KD of MS2 coat protein (input ligand: FMN 200 uM): 206 nM | apparent KD of MS2 coat protein [1]: 85.5 nM | apparent KD of MS2 coat protein (input ligand: none): 129 nM

AUUAAACAUGAGGAUCACCCAUGUCAACAAAGUCGAGGAUAUGGGCAAAUAAAAUAAGUACCAGAAGGCGAAUAAU [salish99_ss1_r3_066] (puzzle: Same State 1)
apparent KD of MS2 coat protein [3]: 149 nM

UGGAUCUAGGCUUGCCUGGGUCCAUGCUGACAUGAGGAUCACCCAUGUGCAUCCUACAAGCUUUUUGCUUGUCUGUC (puzzle: Sensor for hsa-mir-208a)
apparent KD of MS2 coat protein [2]: 60.7 nM | apparent KD of MS2 coat protein [3]: 69.7 nM | apparent KD of MS2 coat protein [4]: 51 nM

UUUAGGAACGGGCAGGAUAUGUAUUAAAAUACAUGAGGAUCACCCAUGUGCGGGUAUAACACCCGACAGAAGGGCCAAUCGUUCC [Laonerce - 9] (puzzle: Same State 2)
apparent KD of MS2 coat protein [2]: 22.7 nM | apparent KD of MS2 coat protein [3]: 170 nM | apparent KD of MS2 coat protein [4]: 231 nM

GUGGUCAGACAUGAGGAUCACCCAUGUGGAAUAAAUAACAACUAGGAUAUGUAAUAUAGGAUAUAACAGAAGGAGUGAUUGGUG (Eterna round: R96, puzzle: Same State NG 3)
apparent KD of MS2 coat protein [1]: 111 nM

AGUCCAGCCUAAGCUGGACAAAAGCAUGUACAUGAGGAUCACCCAUGUUCAUGUACAAGCUUUUUGCUCGUCUUAAA [Mat - hsa-mir-208a - Mod of JL - 54] (puzzle: Sensor for hsa-mir-208a)
apparent KD of MS2 coat protein [2]: 544 nM | apparent KD of MS2 coat protein [3]: 15.1 nM | apparent KD of MS2 coat protein [4]: 447 nM

AGCCUGAGUCGAGGAUAUUAUGGAUCAAUUAAUACAUGAGGAUCACCCAUGUAAUUAAUUUAACAUGAGAAGGUGACUCAGGCA [SSNG2/10-B1] (Eterna round: R96, puzzle: Same State NG 2)
apparent KD of MS2 coat protein [1]: 8.66 nM

CGCCGACAUGAGGAUCACCCAUGUGAGCGACUCACAGGAUAUACGCGAUAACAACUUCGCGUAGAAGGGUGCUCCU [Esvezaza] (puzzle: Same State 1)
apparent KD of MS2 coat protein [2]: 14.4 nM | apparent KD of MS2 coat protein [3]: 12.2 nM | apparent KD of MS2 coat protein [4]: 14.4 nM

ACAAGACAUGAGGAUCACCCAUGUCCCAAUGACACAGGAUAUCGGUAGGCAUAGCCUACGCGAGAAGGGUGACUUC [Same State 1 - Mod of Vinnie Gere v.1] (puzzle: Same State 1)
apparent KD of MS2 coat protein [2]: 198 nM | apparent KD of MS2 coat protein [3]: 68.3 nM | apparent KD of MS2 coat protein [4]: 73 nM
